± gives the uncertainty stated by the source.
Test: amyloid nucleation score (Sup35N fusion, yeast selection) (log enrichment); library NNK3; higher = more nucleation; inactive = no reads after selection
Summary of the method: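 The nucleation score is a DiMSum log enrichment of output over input reads, centred on the mode score of non-aggregating sequences. Sequences under 100 input reads were excluded, and reads came from Illumina sequencing of plasmid inserts. Psi-negative yeast expressing Sup35N fused to peptides of 20 random codons were induced with 100 μM copper sulfate for 24 hours and grown 7 days at 30°C on medium lacking adenine and uracil. Random libraries had three technical output replicates.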

| Substance | amyloid nucleation score |
| --- | --- |
| RCECVPPNQTRCYQRLASS | inactive |
| RCEFIFS | inactive |
| RCFKLLNSTECCSKWVRAFS | inactive |
| RCGKPVGRTYGLGISIEKAR | inactive |
| RCIGALRTRPSTEGRTSLRI | inactive |
| RCMIVASFYLSLIWKI | inactive |
| RCNALSLWIYNEKSWNNTWY | 1.74 ± 0.084 |
| RCNLGTAAHFCKY | inactive |
| RCTGRLRTVGRSSMLEFEFV | inactive |
| RCTVSTSGSGGFCPVPRSGM | inactive |
| RDEYYRDRLGIVNLSRCSKS | inactive |
| RDGSM | inactive |
| RDHWNELGRDYGWTLCKKAY | inactive |
| RDRQFSSSDVPGCEVTGRTD | 1.04 ± 0.12 |
| RDSLFSV | inactive |
| RDVFINPTTGQALNVWACCR | inactive |
| RDWKEDLFFF | inactive |
| RDWLIMSLGVVLVWFLRYQY | inactive |
| RDYYGVLLNLCLHHFWLHW | inactive |
| REASCGIDRMIRRCTERLSC | inactive |
| RECDFFLWAYYLVNIQLRVQ | -0.27 ± 0.66 |
| REEAVWQADFVYLTKSAILN | inactive |
| REWCLEVYHWYITRSHVYWC | inactive |

| Substance | amyloid nucleation score |
| --- | --- |
| REYPYDMYSHLSLFDARHPG | inactive |
| RFACFSRGACFCNRLVMPYD | inactive |
| RFAPFMRGM | -0.784 ± 1.5 |
| RFFVNL | inactive |
| RFIEKTSKIMSPDAYPSLKY | inactive |
| RFKCSTNGCRTFRGHHYNVK | inactive |
| RFMSCMGFPHRCHGSSRYVG | inactive |
| RFTSVILNTSDLSKLRMGTE | 0.437 ± 0.31 |
| RGESHVCLCYL | 0.761 ± 0.17 |
| RGGRYDFMCDTCSLIVFASV | -0.645 ± 1.1 |
| RGIDYSHTL | inactive |
| RGIEVMDLTLARAHKRA | inactive |
| RGNDLIVCCGDRMCFCNALS | inactive |
| RGQFICRCGVARPV | inactive |
| RGQRVSSVMRRTQVGDWNTP | inactive |
| RGSGILRVLTKSRWCICMGT | inactive |
| RGVIPLNSKCKL | inactive |
| RGYGAAHQRRCQRIRNYYKY | inactive |
| RGYSANWNLMVAVTCGTIH | -0.422 ± 0.71 |
| RHQHKRGAV | -0.982 ± 1.4 |
| RHRIRWSMRRNWSACVQ | inactive |
| RHWDVLK | inactive |
| RHWTGCSNQESRTGCGACCI | inactive |

| Substance | amyloid nucleation score |
| --- | --- |
| RIFWHQCGYGSIRLWGQLDR | -0.531 ± 0.83 |
| RIFYKVDTDGIIIIVYS | inactive |
| RIGAPKRRSRTWKNPAWTGQ | inactive |
| RIKFNHTAFNWFQIF | 1.69 ± 0.091 |
| RIKYS | inactive |
| RILERVATQWRYGRCPMCDR | inactive |
| RILHFTICPNQWTRYKVDS | inactive |
| RINWTMMCKTFLRFINKS | inactive |
| RIPKDEYTNPGRA | inactive |
| RIRALLD | inactive |
| RISLCVHFILFCFPSSRQSL | 0.815 ± 0.12 |
| RISYMSGDYRPSKCACVYAE | inactive |
| RIYGHVLSRDANFVRLWVGT | inactive |
| RKACYLLVI | inactive |
| RKCCGVLSLSASLHDRDDGC | inactive |
| RKGSVKEFRYNMSNLESVCS | inactive |
| RKIHLLGHWLFRSMYRRRFW | inactive |
| RKIHVAMVLRIEYSMYGSPA | inactive |
| RKLFGSHS | inactive |
| RKLGPSHQWNHRWGFSVRSC | inactive |
| RKNSDLTYSNSVNLTCACRT | 0.434 ± 0.18 |
| RKVNHFNE | inactive |
| RKWSNR | inactive |

| Substance | amyloid nucleation score |
| --- | --- |
| RLCHRWFLDRLTICY | inactive |
| RLCNHKILDPACVLTSQVPI | inactive |
| RLDVFYEMLIMYKEQYGMVR | inactive |
| RLFLTVHPTDSILENEAV | inactive |
| RLFMDLYVFTTRVFNIFQFV | inactive |
| RLGRSLRLIVMITG | inactive |
| RLITNNVTS | inactive |
| RLIWVDLALMFMFMYFLVRQ | inactive |
| RLKCHNNMNYSSYDLH | inactive |
| RLLDGMTSVLC | inactive |
| RLLHCGRILWGFVNDLMIML | inactive |
| RLLIMSGNNGLLGPSYNAIV | -0.01 ± 0.78 |
| RLLVTLQ | inactive |
| RLMVL | inactive |
| RLSGKTPCAK | inactive |
| RLSLKSFVRFQRLCP | inactive |
| RLTARLINGMDY | 1.27 ± 0.1 |
| RLTHLLHCYTI | inactive |
| RLTTNTIVKDSISRFRN | 0.183 ± 0.29 |
| RLVRIW | inactive |
| RLVVNQHSPDKP | inactive |
| RLWHLLFLHNRYHVVFNSIL | inactive |
| RLWWS | -0.186 ± 0.98 |

| Substance | amyloid nucleation score |
| --- | --- |
| RLYYRLQTKQAVWCNHPAPT | inactive |
| RMFNDSLNRV | inactive |
| RMILFFVARSSKMGIGTFGF | 0.868 ± 0.21 |
| RMLDG | inactive |
| RMMCARIFRVSWLSSCLEGG | inactive |
| RMNMCMWLAWDSPWYIMGY | inactive |
| RMPAFLCGYC | inactive |
| RMRKSFLFVWIDFILKR | inactive |
| RMRLSWVMHSV | inactive |
| RMTVKQMLYHDWCTVRPSYC | inactive |
| RMVDFADF | inactive |
| RNCQRESGTLYNYHVARS | inactive |
| RNFGYIDSKLWP | inactive |
| RNKHYVGRQSVSDSRVLSIV | inactive |
| RNKLALVLKLAHSI | inactive |
| RNKVHRNG | inactive |
| RNLLRSTLKGYFWYSCNVDV | inactive |
| RNMEPDASVATV | inactive |
| RNNSNEKSFLRQSYYHCDCF | 2.73 ± 0.07 |
| RNQFWTWYGVSMLSNRQHGK | inactive |
| RNRWPLPRYICRFKGFSHVV | inactive |
| RNSMGVILKVCLGRN | 1.66 ± 0.091 |
| RNSVFLCKGIQVYLVLVIVV | inactive |

| Substance | amyloid nucleation score |
| --- | --- |
| RNVTRGYYMYFKRMVRHYWG | inactive |
| RNWLMANS | inactive |
| RPGYHSVVKHAKRLVEVNR | inactive |
| RPHRAWALAVRVASDVCQNS | 1.11 ± 0.11 |
| RPKPNRSRTIASQLETKSGW | -0.727 ± 1.1 |
| RPKTTH | inactive |
| RPRNLSLASYTDSVMRFGLS | inactive |
| RPYGFKAIVYGQCR | inactive |
| RPYSNQGGTLITSAVLGLTK | inactive |
| RQCGVVIKFLMISTLISSIA | inactive |
| RQILSFWP | inactive |
| RQLMRSDPAMGTICERY | inactive |
| RQNVWTLVPLVKFRLSNTQT | inactive |
| RRAMIGIFSITVRFADNGWK | inactive |
| RRFKQCNHILACR | inactive |
| RRFVNVLGMHC | 0.693 ± 0.16 |
| RRLSSHLFMLWYMVR | inactive |
| RRMPLWEVGFSQASLTRQ | inactive |
| RRNHMEFWTCSKYPRGLCGI | inactive |
| RRVFHQAFSGWSDLCIQRSG | inactive |
| RRVGSWTYVSFSDGI | 0.239 ± 0.41 |
| RRVLTARDWVCH | inactive |
| RRVMIALRYRRYGEFTEAYP | inactive |

| Substance | amyloid nucleation score |
| --- | --- |
| RRYEFLGGTEGSARRLDSKP | inactive |
| RRYYLRV | inactive |
| RSCSCLSRDKYNYLLIDSLV | inactive |
| RSDSADLIKG | inactive |
| RSDVI | inactive |
| RSELASLKGCDIELVFTYQR | inactive |
| RSFSLGRLSYYRGVTNILLA | inactive |
| RSIHYSYWCIYGNIRDTVRS | inactive |
| RSIITGVKVDLFNLAVTVFL | 2.62 ± 0.063 |
| RSILLEGVLAFM | inactive |
| RSILVFHSDRLKYGYLMIDV | inactive |
| RSKSF | inactive |
| RSLFHSAFEFRFLGLTECTY | inactive |
| RSLFSISAVIEICMLWSV | inactive |
| RSMKLPAKTASLLH | inactive |
| RSMRSQSSLQAHQSIRSEGR | inactive |
| RSPEDFSGTCHAGRCSWVHG | -0.044 ± 0.39 |
| RSRLCWED | -0.029 ± 0.5 |
| RSSSASR | inactive |
| RSSVYGQLILVPHYFDCLNL | inactive |
| RSVLLKVHTWITKSCFSTGL | inactive |
| RSVNGVTLGTARYHAVERVL | inactive |
